Data on ten compounds can be found in paper PMC12624773, “Receptor activity–modifying protein 3 enhances GLP-1-mediated insulin secretion” (The Journal of Biological Chemistry, 2025).

The subject of one experiment is CLR–RAMP1. The note with it: ref [43]; cited from earlier work. From the text:
As RAMP3 expression varies between tissues, it is possible that by directly targeting this complex, tissue-specific receptor activation could be facilitated. […] Agonists that have reduced affinity for the RAMP3 complex over the receptor alone ...

Experiment [1] relates to INS-1 832/3 cells. The experiment can be described thus: Glucose-stimulated insulin secretion in INS-1 832/3 cells, GLP-1R agonists. The class given is cell-based, rat. The conditions noted are these: 10 nM GLP-1; for effect of inhibitor on GLP-1-mediated insulin secretion: vector- and RAMP3-transfected, 30 min pretreatment, normalized to 10 nM GLP-1 + 0.1% DMSO.
The target of experiment [2] is T1, Nluc–GLP-1R (Homo sapiens, UniProt P43220). The class given is cell-based. Set-up: signal peptide of murine serotonin 5-HT3R (sig) (N); expressed in transfected cells; host or cells: HEK293T. The note with it: HEK293T, absence of RAMP3.
T1 sequence (P43220 24-463): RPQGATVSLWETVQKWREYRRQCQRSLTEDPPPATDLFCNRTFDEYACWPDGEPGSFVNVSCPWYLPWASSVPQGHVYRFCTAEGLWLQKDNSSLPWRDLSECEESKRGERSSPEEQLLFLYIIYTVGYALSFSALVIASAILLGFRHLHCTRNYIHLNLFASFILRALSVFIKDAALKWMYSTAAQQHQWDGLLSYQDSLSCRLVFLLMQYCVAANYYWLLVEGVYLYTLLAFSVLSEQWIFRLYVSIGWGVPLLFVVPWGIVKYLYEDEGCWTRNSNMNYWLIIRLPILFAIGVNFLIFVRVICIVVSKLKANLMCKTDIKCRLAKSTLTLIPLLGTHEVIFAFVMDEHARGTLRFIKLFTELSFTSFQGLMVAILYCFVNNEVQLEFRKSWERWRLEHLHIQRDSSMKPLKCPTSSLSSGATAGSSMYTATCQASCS
Experiment [3] has as its target T1, Nluc–GLP-1R. The class given is cell-based. Set-up: signal peptide of murine serotonin 5-HT3R (sig) (N); expressed in transfected cells; host or cells: HEK293T. The note with it: HEK293T; over the concentration range tested.
The conditions of experiment [4]: ref [3]; cited from earlier work. From the text: The incretin effect, whereby oral glucose elevates plasma insulin levels to a greater degree than intravenous administration, was first observed in 1964 ([1]). This is mediated by incretin hormones, the best known of which are GLP-1 and the glucose-dependent insulinotropic polypeptide (GIP). […] However, newer m ...

The target in experiment [5] is T1, Nluc–GLP-1R.
A further experiment has as its system GCGR with RAMP2. The note with it: GCGR coexpressed with RAMP2; ref [13]; cited from earlier work.
In experiment [6] the test system is INS-1 832/3 cells. The note with it: 10 nM GIP, […] glucose.
The next experiment deals with GIPR. The note with it: Min6 B1, 8-min stimulation, n = 4.
The subject of a further experiment is Min6 B1 cells. As to the kind of experiment: Insulin secretion in siRNA-treated Min6 B1 cells. The note with it: 10 nM and 1 nM agonist, n = 4.
The target in another experiment is GLP-1R–Nluc (human) (UniProt P43220).
Chain of GLP-1R–Nluc (human) (P43220 24-463): as above

“Also recorded” adds a separate entry of the source. Numbered stars: 1 amine (or outer) side, 2 acyl side, 3 side chain; on linkers, the order of the positions; unused ones are H or OH. Bridge positions count the residues as written; N and C are the ends. Square brackets hold non-standard residues; d marks the D form. Peptide text beside a SMILES is read from it. X1 = CC(=O)NC(C(=O)OC(C(C)C)C(N[*:1])C(=O)[*:2])C(O)C(C)C; PhLac = O=C(O)[CH](O)Cc1ccccc1; NMeT = CN[CH](C(=O)O)[CH](C)O; NMeA = CN[CH](C)C(=O)O; NMeDha = C=C(NC)C(=O)O

As for `NCCCC[C@H](NC(=O)[C@@H](Cc1cc(Br)c(O)c(Br)c1)NC(=O)N1CCC(N2Cc3ccccc3NC2=O)CC1)C(=O)N1CCN(c2ccncc2)CC1` [BIBN 4096 BS], the “disruption of receptor–RAMP interaction” value with CLR–RAMP1 was “disrupt the interaction”.
As to `CC(C)(C)c1cc(C(=O)/C(C#N)=N/Nc2cccc(Cl)c2)no1` [ESI-09], the “effect of inhibitor on GLP-1-mediated insulin secretion” value in the experiment on INS-1 832/3 cells [1] is listed as “significantly decreased; also recorded: significantly reduced insulin secretion”.
`Nc1ncnc2c1nc(Br)n2C1OC2COP(O)(=S)OC2C1O` (stereo not shown) [Rp-8-Br-cAMPs]: the “effect of inhibitor on GLP-1-mediated insulin secretion” value with INS-1 832/3 cells [1] is reported as “no effect; also recorded: unaffected”.
For `C=C1C(=O)NC(C)C(=O)N(C)C(C)C(=O)NC(C(OC(=O)C(NC(C)=O)C(O)C(C)C)C(C)C)C(=O)N(C)C(C(C)OC)C(=O)OC(C)C(NC(C)=O)C(=O)OC(Cc2ccccc2)C(=O)N1C` (stereo not shown) [YM-254890] (Ac-T[PhLac][NMeDha]A[NMeA][X1][NMeT](Me); ester 1-C; configuration not given here), the “effect of inhibitor on GLP-1-mediated insulin secretion, RAMP3 vs vector” value with INS-1 832/3 cells [1] (YM-254890 100 nM, PTX 0.2 ng/μl) is “decreased insulin secretion significantly only when RAMP3 was overexpressed; also recorded: only reduced insulin secretion in cells overexpressing RAMP3”.
As to GLP-1 (9–36), the “(Ca^2+)i mobilization” value on Nluc–GLP-1R [2] is listed as “unable to elicit any (Ca^2+)i mobilization”. The cAMP production result on Nluc–GLP-1R [3] was “did not elicit sufficient cAMP production over the concentration range tested”.
Regarding Semaglutide, the “protection against neurodegeneration and neuroinflammation” value in [4] is “protect against neurodegeneration and neuroinflammation”.
On to “exendin-4 (from UniProt P26349 48-87) (peptide)”, for which, in the experiment with Nluc–GLP-1R [5], the Ca^2+ mobilization, HEK293T, + 2xFLAG-RAMP3; pEC50 was 8.6 pEC50; the Ca^2+ mobilization, HEK293T, receptor alone; pEC50 stood at 6.9 pEC50; the cAMP accumulation, 8-min stimulation, HEK293T, + 2xFLAG-RAMP3; pEC50 stood at 11.3 pEC50; the cAMP accumulation, 8-min stimulation, HEK293T, + FLAG-RAMP3; pEC50 is 11.6 pEC50. Besides, in the experiment with Nluc–GLP-1R [5], the cAMP accumulation, 8-min stimulation, HEK293T, receptor alone; pEC50 worked out at 11.7 pEC50; the cAMP accumulation, 30-min stimulation, HEK293T, + 2xFLAG-RAMP3; pEC50 came to 12.4 pEC50; the cAMP accumulation, 30-min stimulation, HEK293T, + FLAG-RAMP3; pEC50 was 12.8 pEC50; the cAMP accumulation, 30-min stimulation, HEK293T, receptor alone; pEC50 turned out to be 13.1 pEC50.
With glucagon: agonist of GCGR (cited), the “effect of RAMP2 on Gαs coupling/response at GCGR” value in the experiment with GCGR with RAMP2 is listed as “increasing Gαs coupling”.
In the case of “glucose-dependent insulinotropic polypeptide [GIP]”, in the experiment with INS-1 832/3 cells [6], the “effect of RAMP1 transfection on insulin secretion” value was “increased insulin secretion” and the “effect of RAMP3 transfection on insulin secretion” value is given as “increased insulin secretion”. Further, the “effect of RAMP3 siRNA on cAMP accumulation” value in the experiment with GIPR is “no effect”. Further, the “effect of RAMP3 knockdown on insulin secretion” value in the experiment on Min6 B1 cells is given as “unaffected”.
Regarding liraglutide (peptide), in the experiment with Nluc–GLP-1R [5], the Ca^2+ mobilization, HEK293T, + 2xFLAG-RAMP3; pEC50 turned out to be 7.5 pEC50; the Ca^2+ mobilization, HEK293T, + FLAG-RAMP3; pEC50 was found to be 7.4 pEC50; the Ca^2+ mobilization, HEK293T, receptor alone; pEC50 worked out at 7.5 pEC50; the cAMP accumulation, 8-min stimulation, HEK293T, + 2xFLAG-RAMP3; pEC50 amounted to 9.9 pEC50. In the experiment with Nluc–GLP-1R [5], the cAMP accumulation, 8-min stimulation, HEK293T, + FLAG-RAMP3; pEC50 was determined as 10.3 pEC50; the cAMP accumulation, 30-min stimulation, HEK293T, + 2xFLAG-RAMP3; pEC50 came to 10.1 pEC50; the cAMP accumulation, 30-min stimulation, HEK293T, + FLAG-RAMP3; pEC50 was determined as 10.3 pEC50; the cAMP accumulation, 30-min stimulation, HEK293T, receptor alone; pEC50 came out at 10.4 pEC50. Further, in the experiment with GLP-1R–Nluc (human), the internalization (loss of BRET with RIT-Venus), HEK293T, + 2xFLAG-RAMP3; pEC50 was found to be 7.6 pEC50; the internalization (loss of BRET with RIT-Venus), HEK293T, + FLAG-RAMP3; pEC50 was determined as 8.2 pEC50; the internalization (loss of BRET with RIT-Venus), HEK293T, receptor alone; pEC50 turned out to be 8.5 pEC50; the β-arrestin1–YFP recruitment (BRET), HEK293T, + 2xFLAG-RAMP3; pEC50 came to 7.5 pEC50. Further, in the experiment with GLP-1R–Nluc (human), the β-arrestin1–YFP recruitment (BRET), HEK293T, + FLAG-RAMP3; pEC50 worked out at 7.1 pEC50; the β-arrestin1–YFP recruitment (BRET), HEK293T, receptor alone; pEC50 was determined as 7 pEC50; the β-arrestin2–YFP recruitment (BRET), HEK293T, + 2xFLAG-RAMP3; pEC50 is 7.5 pEC50; the β-arrestin2–YFP recruitment (BRET), HEK293T, + FLAG-RAMP3; pEC50 is 7.1 pEC50. The β-arrestin2–YFP recruitment (BRET), HEK293T, receptor alone; pEC50 with GLP-1R–Nluc (human) was 7.3 pEC50.
